From patent US20200131274A1 (CRESCENDO BIOLOGICS, published 2020)

Assays:
[1] = target: T1, recombinant human PSMA (R&D, cat. no. 4234-ZN) (human, UniProt Q04609 44-750); assay: Octet RED384 BLI, PSMA on sensor, VH purified from periplasmic extracts
T1 construct: Bought protein; also called rhPSMA; Recombinant PMSA

[2] = target: T2, human prostate specific membrane antigen (PSMA), full-length, on cells (human, UniProt Q04609 1-750); assay: cell-based or functional assay
[3] = target: T2, human prostate specific membrane …; assay: cell-based or functional assay; remark: listed apart in the source
[4] = target: cynomolgus PSMA, full-length, on CHO cells (cynomolgus, UniProt A0A2K5VNZ0 1-750); assay: cell-based or functional assay

T2 sequence (Q04609 whole entry): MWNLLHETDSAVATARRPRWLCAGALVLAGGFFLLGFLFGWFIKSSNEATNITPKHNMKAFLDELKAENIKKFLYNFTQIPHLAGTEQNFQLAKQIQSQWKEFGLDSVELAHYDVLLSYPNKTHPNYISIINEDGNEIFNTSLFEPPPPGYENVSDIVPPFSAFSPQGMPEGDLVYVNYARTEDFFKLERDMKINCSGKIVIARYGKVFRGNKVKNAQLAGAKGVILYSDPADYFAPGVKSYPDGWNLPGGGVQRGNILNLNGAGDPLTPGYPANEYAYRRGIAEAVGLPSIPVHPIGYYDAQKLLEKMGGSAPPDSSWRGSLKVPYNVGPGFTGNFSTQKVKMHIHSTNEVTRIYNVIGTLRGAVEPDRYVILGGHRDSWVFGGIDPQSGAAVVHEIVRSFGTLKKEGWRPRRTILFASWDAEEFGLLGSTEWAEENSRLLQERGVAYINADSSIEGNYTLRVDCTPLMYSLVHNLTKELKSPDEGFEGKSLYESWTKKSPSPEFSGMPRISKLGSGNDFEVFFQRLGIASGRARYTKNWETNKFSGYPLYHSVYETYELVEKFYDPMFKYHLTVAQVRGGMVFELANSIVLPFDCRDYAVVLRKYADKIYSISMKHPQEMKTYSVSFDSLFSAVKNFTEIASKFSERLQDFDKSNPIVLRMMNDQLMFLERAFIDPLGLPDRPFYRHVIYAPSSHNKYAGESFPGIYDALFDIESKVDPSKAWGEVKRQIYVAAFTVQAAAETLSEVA
T1 sequence (Q04609 44-750 limits assumed): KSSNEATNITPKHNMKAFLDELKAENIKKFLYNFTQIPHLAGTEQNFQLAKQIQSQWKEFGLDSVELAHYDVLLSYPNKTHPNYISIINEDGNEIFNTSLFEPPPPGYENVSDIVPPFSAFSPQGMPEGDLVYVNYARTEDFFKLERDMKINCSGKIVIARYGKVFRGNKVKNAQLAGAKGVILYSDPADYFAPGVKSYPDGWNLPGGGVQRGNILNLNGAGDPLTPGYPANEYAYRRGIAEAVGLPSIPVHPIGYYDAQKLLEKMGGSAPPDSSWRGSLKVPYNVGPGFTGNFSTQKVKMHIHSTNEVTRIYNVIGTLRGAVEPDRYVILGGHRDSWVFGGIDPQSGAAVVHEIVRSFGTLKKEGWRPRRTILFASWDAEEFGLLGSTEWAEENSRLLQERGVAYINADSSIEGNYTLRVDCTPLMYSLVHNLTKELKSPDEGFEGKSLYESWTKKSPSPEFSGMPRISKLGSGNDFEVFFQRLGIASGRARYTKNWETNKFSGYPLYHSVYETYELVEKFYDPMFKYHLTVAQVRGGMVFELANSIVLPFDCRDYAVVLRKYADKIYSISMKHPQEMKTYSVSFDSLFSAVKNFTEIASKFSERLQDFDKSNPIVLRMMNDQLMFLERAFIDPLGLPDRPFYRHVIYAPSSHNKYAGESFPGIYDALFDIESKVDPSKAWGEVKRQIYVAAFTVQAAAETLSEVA

B1: single VH domain antibody 6.1 (VHH)
VHH: QVQLQESGPGLVKPSQTLSLTCTVSGGSISNSGYYWSWVRQHPGKDLEWIGFIYYNGSIHYNPSLKSRVIISVDTSKNQFSLKMNSVTAADTAVYYCARDGDDYGDYLRGQGTLVTVSS
notes: Human single VH domain antibody (Humabody); purified via the C-terminal His-tag, residues not tied
Kd [1]: 16 nM
koff [1]: 0.00365 s⁻¹

B2: HiPEG A-2-A-His6 val-cit-PAB-MMAE (VHH)
chain: EVQLVESGGGVVQPGRSLRLSCAASGFSFSGYGMHWVRQAPGKGLEWVAYISYDGSNKYYADSVKGRFTISRDNSKNTLYLQMNSLRAEDTAVYYCAKDPAWGLRLGESSSYDFDIWGQGTMVTVSSGGGGSGGGGSGGGGSGGGGSGGGGSGGGGSEVQLVESGGGVVQPGRSLRLSCAASGFSFSGYGMHWVRQAPGKGLEWVAYISYDGSNKYYADSVKGRFTISRDNSKNTLYLQMNSLRAEDTAVYYCAKDPAWGLRLGESSSYDFDIWGQGTMVTVSSAAAHHHHHH
modifications: HiPEG val-cit-PAB-MMAE attached via the C-terminal His6-tag, DAR 1
IC50 Toxin (nM), DU145 PSMA cells, 48 h [2]: 0.32 nM
Mean IC50, cytotoxicity on DU145 PSMA cells, 48 h [2]: 0.32 nM
Mean Max % Cell kill, DU145 PSMA cells, 48 h [2]: 57%
IC50 (nM), cytotoxicity on DU145 PSMA cells, 72 h [3]: 0.19 nM
IC50 (toxin) nM, DU145 PSMA cells, 72 h [3]: 0.19 nM

B3: single VH domain antibody 4.1 (VHH)
VHH: QVQLVESGGGVVQPGRSLRLSCVASGFPFISYGMHWVRQAPGKGREWVAVISYDGSNRYYADSVKGRFTISRDNSKNTLYLQMNSLRPEDTAVYYCAKERIFGVLTPDDFDIWGQGTTVTVSS
notes: as for B1
Kd [1]: 45 nM
koff [1]: 0.014 s⁻¹

B4: HiPEG C-His6 val-cit-PAB-MMAE (VHH)
VHH: EVQLVESGGGVVQPGRSLRLSCAASGFPLISYGMHWVRQAPGKGLEWVAFMTYDGSNRYYADSVKGRFTISRDNSKNTLYLQMNSLRDEDTALYYCARDRIVGGRVPDAFDIWGQGTMVTVSS
modifications: HiPEG val-cit-PAB-MMAE attached via the C-terminal His6-tag, DAR 1
IC50 Toxin (nM), DU145 PSMA cells, 48 h [2]: 5.21 nM
Mean IC50, cytotoxicity on DU145 PSMA cells, 48 h [2]: 5.2 nM
Mean Max % Cell kill, DU145 PSMA cells, 48 h [2]: 59%

B5: HiPEG A-1-B-His6 val-cit-PAB-MMAE (bispecific antibody)
chain: EVQLVESGGGVVQPGRSLRLSCAASGFSFSGYGMHWVRQAPGKGLEWVAYISYDGSNKYYADSVKGRFTISRDNSKNTLYLQMNSLRAEDTAVYYCAKDPAWGLRLGESSSYDFDIWGQGTMVTVSSGGGGSGGGGSEVQLLESGGGLVQPGGSLRLSCAASGFSFSSYAMSWVRQAPGKGLEWVSSIGENDGTTDYADSVKGRFTISRDNSKSMLYLQMNSLRVEDTAVYYCVKDGVHWGQGTLVTVSS
modifications: HiPEG val-cit-PAB-MMAE attached via the C-terminal His6-tag, DAR 1
IC50 Toxin (nM), DU145 PSMA cells, 48 h [2]: 0.67 nM
Mean IC50, cytotoxicity on DU145 PSMA cells, 48 h [2]: 0.67 nM
Mean Max % Cell kill, DU145 PSMA cells, 48 h [2]: 75%

B6: single VH domain antibody 14.1 (VHH)
VHH: EVQLVESGGEVKKPGASVKVSCKASGYTFTSYDINWVRQATGQGLEWMGWMNPNSGNTGYAQKFQGRVTMTRNTSISTAYMELSSLRSEDTAVYYCARGNGPGITGTTDYWGQGTLVTVSS
Kd [1]: 17 nM
koff [1]: 0.0011 s⁻¹

B7: single VH domain antibody 10.1 (VHH)
VHH: QVQLVESGGGLVQPGGSLRLSCAASGFTFSSYGMHWVRQAPGKGLEWVAFMSYDGSNKYYVDSVKGRFTISRDNSKNTLYLQMNSLRAEDTAVYYCAKGDYDFWSGYPDYDMDVWGQGTTVTVSS
notes: as for B1
Kd [1]: 95 nM
koff [1]: 0.00185 s⁻¹

B8: single VH domain antibody 13.1 (VHH)
VHH: EVQLVESGGGSVQPGGSLRLSCAASGFTFSDYWMTWVRQVPGKGLEWVANIKQDGSEKYYVDSVKGRFTISRDNAKNSLYLQMNSLRAEDTAVYYCARDRGGAVALYHNGMDMGGQGTTVTVSS
notes: as for B1
Kd [1]: 4.2 nM
koff [1]: 0.0006 s⁻¹

B9: 1.1-6GS-2.1 (bispecific antibody)
chain: EVQLLESGGGLVQPGGSLRLSCAASGFSFSSYAMSWVRQAPGKGLEWVSSIGENDGTTDYADSVKGRFTISRDNSKSMLYLQMNSLRVEDTAVYYCVKDGVHWGQGTLVTVSSGGGGSGGGGSGGGGSGGGGSGGGGSGGGGSEVQLVESGGGVVQPGRSLRLSCAASGFSFSGYGMHWVRQAPGKGLEWVAYISYDGSNKYYADSVKGRFTISRDNSKNTLYLQMNSLRAEDTAVYYCAKDPAWGLRLGESSSYDFDIWGQGTMVTVSS
His-ZAP cell killing, cyno PSMA Average EC50 [4]: 0.012 nM

B10: 1.18-6GS-2.15 (bispecific antibody)
chain: EVQLLESGGGLVQPGGSLRLSCAASGFSFSSYALSWVRQAPGKGLEWVSSIGENNATTDYAASVKGRFTISRDNSKNTLYLQMNSLRVEDTAVYYCVKDGVHWGQGTLVTVSSGGGGSGGGGSGGGGSGGGGSGGGGSGGGGSEVQLVESGGGVVQPGRSLRLSCAASGFSFSGYGLHWVRQAPGKGLEWVAYISYDKSNKYYADKVKGRFTISRDNSKNTLYLQMNSLRAEDTAVYYCAKDPAWGLRLGESSSYDFDIWGQGTMVTVSS
His-ZAP cell killing, cyno PSMA Average EC50 [4]: 0.01 nM

B11: 1.1-6GS-2.15 (bispecific antibody)
chain: EVQLLESGGGLVQPGGSLRLSCAASGFSFSSYAMSWVRQAPGKGLEWVSSIGENDGTTDYADSVKGRFTISRDNSKSMLYLQMNSLRVEDTAVYYCVKDGVHWGQGTLVTVSSGGGGSGGGGSGGGGSGGGGSGGGGSGGGGSEVQLVESGGGVVQPGRSLRLSCAASGFSFSGYGLHWVRQAPGKGLEWVAYISYDKSNKYYADKVKGRFTISRDNSKNTLYLQMNSLRAEDTAVYYCAKDPAWGLRLGESSSYDFDIWGQGTMVTVSS
His-ZAP cell killing, cyno PSMA Average EC50 [4]: 0.0086 nM

B12: 1.16-6GS-2.15 (bispecific antibody)
chain: EVQLLESGGGLVQPGGSLRLSCAASGFSFSSYALSWVRQAPGKGLEWVSSIGENNHTTDYADTVKGRFTISRDNSKNTLYLQMNSLRVEDTAVYYCVKDGVHWGQGTLVTVSSGGGGSGGGGSGGGGSGGGGSGGGGSGGGGSEVQLVESGGGVVQPGRSLRLSCAASGFSFSGYGLHWVRQAPGKGLEWVAYISYDKSNKYYADKVKGRFTISRDNSKNTLYLQMNSLRAEDTAVYYCAKDPAWGLRLGESSSYDFDIWGQGTMVTVSS
His-ZAP cell killing, cyno PSMA Average EC50 [4]: 0.011 nM

B13: 1.1-6GS-2.17 (bispecific antibody)
chain: EVQLLESGGGLVQPGGSLRLSCAASGFSFSSYAMSWVRQAPGKGLEWVSSIGENDGTTDYADSVKGRFTISRDNSKSMLYLQMNSLRVEDTAVYYCVKDGVHWGQGTLVTVSSGGGGSGGGGSGGGGSGGGGSGGGGSGGGGSEVQLVESGGGVVQPGRSLRLSCAASGFSFSGYGMHWVRQAPGKGLEWVAYISYDASNKYYADNVKGRFTISRDNSKNTLYLQMNSLRAEDTAVYYCAKDPAWGLRLGESSSYDFDIWGQGTMVTVSS
His-ZAP cell killing, cyno PSMA Average EC50 [4]: 0.011 nM

B14: 1.11-6GS-2.15 (bispecific antibody)
chain: EVQLLESGGGLVQPGGSLRLSCAASGFSFSSYALSWVRQAPGKGLEWVSSIGENNDTTDYADNVKGRFTISRDNSKNTLYLQMNSLRVEDTAVYYCVKDGVHWGQGTLVTVSSGGGGSGGGGSGGGGSGGGGSGGGGSGGGGSEVQLVESGGGVVQPGRSLRLSCAASGFSFSGYGLHWVRQAPGKGLEWVAYISYDKSNKYYADKVKGRFTISRDNSKNTLYLQMNSLRAEDTAVYYCAKDPAWGLRLGESSSYDFDIWGQGTMVTVSS
His-ZAP cell killing, cyno PSMA Average EC50 [4]: 0.009 nM

B15: 1.1-6GS-2.22 (bispecific antibody)
chain: EVQLLESGGGLVQPGGSLRLSCAASGFSFSSYAMSWVRQAPGKGLEWVSSIGENDGTTDYADSVKGRFTISRDNSKSMLYLQMNSLRVEDTAVYYCVKDGVHWGQGTLVTVSSGGGGSGGGGSGGGGSGGGGSGGGGSGGGGSEVQLVESGGGVVQPGRSLRLSCAASGFSFSGYGTHWVRQAPGKGLEWVAYISYDGSNKYYAAPVKGRFTISRDNSKNTLYLQMNSLRAEDTAVYYCAKDAAWGLRLGESSSYDFDIWGQGTMVTVSS
His-ZAP cell killing, cyno PSMA Average EC50 [4]: 0.0078 nM

B16: HiPEG B-2-B-His6 val-cit-PAB-MMAE (VHH)
chain: EVQLLESGGGLVQPGGSLRLSCAASGFSFSSYAMSWVRQAPGKGLEWVSSIGENDGTTDYADSVKGRFTISRDNSKSMLYLQMNSLRVEDTAVYYCVKDGVHWGQGTLVTVSSGGGGSGGGGSGGGGSGGGGSGGGGSGGGGSEVQLLESGGGLVQPGGSLRLSCAASGFSFSSYAMSWVRQAPGKGLEWVSSIGENDGTTDYADSVKGRFTISRDNSKSMLYLQMNSLRVEDTAVYYCVKDGVHWGQGTLVTVSS
modifications: HiPEG val-cit-PAB-MMAE attached via the C-terminal His6-tag, DAR 0.7
IC50 Toxin (nM), DU145 PSMA cells, 48 h [2]: 12.6 nM
Mean IC50, cytotoxicity on DU145 PSMA cells, 48 h [2]: 18 nM
IC50 (nM), cytotoxicity on DU145 PSMA cells, 72 h [3]: 21 nM
IC50 (toxin) nM, DU145 PSMA cells, 72 h [3]: 14.7 nM

B17: HiPEG C-2-C-His6 val-cit-PAB-MMAE (VHH)
chain: EVQLVESGGGVVQPGRSLRLSCAASGFPLISYGMHWVRQAPGKGLEWVAFMTYDGSNRYYADSVKGRFTISRDNSKNTLYLQMNSLRDEDTALYYCARDRIVGGRVPDAFDIWGQGTMVTVSSGGGGSGGGGSGGGGSGGGGSGGGGSGGGGSEVQLVESGGGVVQPGRSLRLSCAASGFPLISYGMHWVRQAPGKGLEWVAFMTYDGSNRYYADSVKGRFTISRDNSKNTLYLQMNSLRDEDTALYYCARDRIVGGRVPDAFDIWGQGTMVTVSS
modifications: HiPEG val-cit-PAB-MMAE attached via the C-terminal His6-tag, DAR 1
IC50 Toxin (nM), DU145 PSMA cells, 48 h [2]: 4.54 nM
Mean IC50, cytotoxicity on DU145 PSMA cells, 48 h [2]: 4.5 nM
Mean Max % Cell kill, DU145 PSMA cells, 48 h [2]: 69%

B18: single VH domain antibody 11.1 (VHH)
VHH: EVQLVESGGGLVKPGGSLRLSCAASGFNLISYGMYWVRQAPGKGLEWVAVISYDGSNKNYADSVKGRFTISRDNSKNTLFLQMNSLRVEDTAVYYCAKGGNALYSSGWPDDGFDIRGQGTMVTVSS
notes: as for B1
Kd [1]: 26 nM
koff [1]: 0.00149 s⁻¹

B19: single VH domain antibody 12.1 (VHH)
VHH: QVQLVESGGGVVQPGRSLRLSCAASGFTFSNFGMHWARQAPGKGLEWVAVISYDGNSKYYADTVKGRFTISRDNSKNTLYLEMNSLRADDTAVYYCAKGLWPPMDVRGQGTTVTVSS
notes: as for B1
Kd [1]: 3.9 nM
koff [1]: 0.00137 s⁻¹
